Broadly, the Kd is the concentration at which binding is half-saturated. Lower therefore signals a tighter complex.

The target of assay [1] is IL-13Rα1 ectodomain (amino acids 1-310), biotinylated (human) (UniProt P78552). Briefly: SPR; equilibrium. The settings on record: ligand. For orientation: SPR reads the build-up and loss of mass on a sensor chip optically.
Assay [2] shares this target. Kind of assay: SPR; kinetic. The settings on record: ligand.

Chain of IL-13Rα1 ectodomain (amino acids 1-310), biotinylated (human) (P78552 other isoform, or with tags, fused parts or gaps): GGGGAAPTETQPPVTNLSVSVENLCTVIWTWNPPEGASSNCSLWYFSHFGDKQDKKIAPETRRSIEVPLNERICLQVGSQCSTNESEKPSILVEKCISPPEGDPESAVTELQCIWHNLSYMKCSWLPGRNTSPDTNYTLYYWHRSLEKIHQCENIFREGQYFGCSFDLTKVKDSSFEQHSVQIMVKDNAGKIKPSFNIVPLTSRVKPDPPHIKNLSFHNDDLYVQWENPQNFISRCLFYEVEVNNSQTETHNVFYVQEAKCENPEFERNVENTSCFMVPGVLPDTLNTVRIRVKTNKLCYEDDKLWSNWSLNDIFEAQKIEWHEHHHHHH

With “IL-13 variant C4 (from UniProt P35225 34-146)”, the Kd in assay [1] was determined as 36000 nM.

On to “IL-13 variant C11 (from UniProt P35225 34-146)”, for which, in assay [1], the Kd was 1600 nM.

Substance “wild-type human IL-13 (from UniProt P35225 34-146)” returned a Kd in assay [2] of 4.38 nM.

For the origin of these results see patent US20150056162A1.
